We go through one substance from patent publication US6884597B1, “Method for detecting acetyltransferase and deacetylase activities and method for screening inhibitors or enhancers of these enzymes” (Medical & Biological Laboratories, Co., Ltd., priority 1998, dated 2005).

The data set concerns sub p53-1 and sub p53-2 peptides. The data set is described as follows: ELISA system for measuring the deacetylase activity (liquid and solid phase). As to conditions: 0 to 10 μg/ml; liquid and solid phases; depending on the concentration; FIGS. 11 and 12. The format is biochemical, human. On the procedure: Two peptide substrates “Sub Ac p53-1” (SEQ ID NO: 17/Bio-STSRHKK(Ac)LMFKTE and “Sub Ac p53-2” (SEQ ID NO: 18/Bio-SHLKSKK (Ac) GQSTSR) in which an acetyl group was introduced into the ε amino group on the 373rd and 382nd lysine residues of human p53, were prepared by a peptide synthesizer. An amino acid in a peptide is shown by the one-letter code and “Bio” at the amino ends means biotin. K(Ac) indicates an acetylated lysine residue. Ninety percent or higher purity of the synthesized peptides was confirmed by HPLC. “Sub Ac p53-1” and “Sub Ac p53-2” were composed of amino acid residues 376 to 388 and 367 to 379, of human p53, respectively.
Two peptides substrate were dissolved in PBS to 10 μg/ml. 50 μl of each peptide solution were added to each well on a microtiter plate for ELISA, and sensitized at 4° C. overnight. […]
The synthesized peptide substrates and the recombinant deacetylase were reacted in the liquid phase, and the enzyme activity was measured by ELISA system using a microtiter plate. […] 100 μl of 1.5 N phosphate solution were added thereto to terminate the coloring reaction, and absorbance at 450 nm was measured using a microtiter plate reader. • Solid Phase Analysis System (Refer to FIG. 4) […]
On the technique in general: ELISA stands for enzyme-linked immunosorbent assay.

As to “recombinant HDAC1: recombinant deacetylase HDAC1/RPD3 (full length) purified from E. coli”, the “deacetylase activities in sub p53-1 and sub p53-2 peptides” value is “detected”.
